B1: NECAB1 (parent)
chain: FSPNSPQFNVSGPGLLEEDNQWMT
B2: NET1 (parent)
chain: RVRPLARVTSLANLISPVRNGAVR

Variants of: B1
Assay: protein stability index of a GFP-peptide fusion (GPS, HEK-293T) (PSI 1-6); higher = more stable
Settings: c terminus: a fixed tail appended
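Note: lentivirally expressed fusions sorted by FACS into six bins by GFP to DsRed ratio, PSI derived from sequencing read proportions per bin multiplied by bin number.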

Protein stability index, by site and new letter:
F1: L 4.55; N 4.63; S 4.75; I 4.33; M 4.7; W 3.85; Q 4.7; E 4.79
V10: F 2.28; A 3.5; Q 3.32; E 4.16; I 3.09; K 2.94; T 2.89; S 3.19; Y 2.89; P 3.16; D 4.09; H 3.63; N 3.68; R 3.38; G 2.92; L 2.74; C 2.42; M 3.33; W 1.87

Variants of: B2
Assay: as above
Settings: c terminus: a fixed tail appended

Protein stability index, by site and new letter:
V18: P 3.12; W 2.25; K 2.31; N 3.2; A 3.03; Y 2.23; L 2.94; H 2.75; R 3.15; C 2.21; D 4.03; T 3.68; E 3.63; I 2.83; F 2.29; Q 3.63; S 4.17; M 3.07; G 3.49
N20: D 3.2; F 2.26; T 2.79; Q 3.75; E 3.33; S 2.74; Y 2.52; A 2.91; L 3.29; R 2.57; K 2.49; H 3.3; P 2.94; I 2.66; M 2.54; W 2.33; G 2.96; V 2.64; C 2.72
R24: C 3.21; G 2.93; M 2.19; L 2.2; S 2.74; W 2.44; V 2.63; A 2.98; T 2.39; E 3.8; H 2.38; N 2.91; K 3.47; I 2.54; P 2.93; D 3.37; F 2.44; Y 1.88; Q 3.37
R19: G 3.4; Y 2.19; Q 3.06; N 3.28; V 3.6; C 2.99; I 3.02; M 2.53; S 3.2; W 1.82; P 2.68; T 3.3; A 2.96; H 2.69; F 2.29; D 3.76; E 3.55; K 2.59; L 2.81
V23: F 2.26; R 3.89; C 2.72; D 3.3; E 2.79; P 3.86; S 3.4; K 3.99; G 3.79; L 2.66; T 3.13; W 2.4; A 3.08; N 3.68; H 3.43; Y 2.9; M 3.22; Q 3.73; I 2.7
P17: V 3.16; S 3.45; T 2.8; Q 2.29; Y 2.07; R 2.24; W 1.89
G21: W 2.31; H 2.85; N 2.88; R 2.42; S 3.56; V 2.69; T 3.35; C 2.75; P 3.52; L 2.68; M 2.69; Y 2.82; F 2.42; K 2.71; Q 3.12; D 2.55; I 2.87; E 3.08; A 3.62
A22: S 3.37; K 3.36; I 2.76; T 3.46; V 2.75; N 3.02; H 3.03; E 3.52; R 3.36; Y 2.54; C 2.92; P 3.49; W 1.86; M 2.25; L 2.62; Q 3.69; G 3.18; F 2.4; D 3.35
